Assay results: paper PMC8784325, “The ubiquitin-binding domain of DNA polymerase η directly binds to DNA clamp PCNA and regulates translesion DNA synthesis” (The Journal of Biological Chemistry, 2021)

Legend:
[1] = tested on: rad30Δ S. cerevisiae strain; settings: S. cerevisiae strains; cited from earlier work
[2] = tested on: rad30Δ S. cerevisiae strain; test: UV sensitivity complementation (spot assay), rad30Δ strain; type: cell-based, Saccharomyces cerevisiae; settings: ADH1 promoter, UV 16–32 J/m^2, 30 °C, 3 days
Method: Figure 1 Identification of PCNA interaction region in CaPolη.A, amino acid alignment between Ca- and Sc-Polη was carried out by EMBOSS Needle; identical amino acids are marked by ∗ and similar amino acids were marked by: symbols. All the important motifs and domains are underlined, including Motif I to V, PAD, ubz and pip. Putative pip sequences were labeled as Seq-1 through Seq-4 in the C-terminal domain. […] C, putative pip sequences of CaPolη were compared with the already identified pip motifs of other Y-family pols. D, line diagram showing various domains of Polηs and a C-terminal deletant CaPolη (1–512). E, determination of binding kinetics of wild type or truncated CaPolƞ (1–512) with CaPCNA by ITC. […] F, UV sensitivities of S. cerevisiae strains. Cells of genomic rad30Δ and rad30Δrev3Δ deletion S. cerevisiae strains harboring YEP-ADH1p or YEP-ADH1p-ScPolη or YEP-ADH1p-CaPolη or YEP-ADH1p-CaPolη (1–512) or YEP-ADH1p-CaPolη F485A,L486A plasmids from an overnight SD-Ura culture were serially diluted and spotted onto SD-Ura plates. […]
Figure 2 Ubz domain of CaPolη is essential TLS activity.A, a line diagram showing the deletion and site-directed mutations in the ubz domain of CaPolη. […] Following UV irradiation, plates were incubated in the dark, and colonies were counted after 3 to 5 days. […]

B1: ScPolη F627A,F628A (protein, UniProt Q04049 1-632, looked up, variant F627A F628A)
DNA polymerase eta: MSKFTWKELIQLGSPSKAYESSLACIAHIDMNAFFAQVEQMRCGLSKEDPVVCVQWNSIIAVSYAARKYGISRMDTIQEALKKCSNLIPIHTAVFKKGEDFWQYHDGCGSWVQDPAKQISVEDHKVSLEPYRRESRKALKIFKSACDLVERASIDEVFLDLGRICFNMLMFDNEYELTGDLKLKDALSNIREAFIGGNYDINSHLPLIPEKIKSLKFEGDVFNPEGRDLITDWDDVILALGSQVCKGIRDSIKDILGYTTSCGLSSTKNVCKLASNYKKPDAQTIVKNDCLLDFLDCGKFEITSFWTLGGVLGKELIDVLDLPHENSIKHIRETWPDNAGQLKEFLDAKVKQSDYDRSTSNIDPLKTADLAEKLFKLSRGRYGLPLSSRPVVKSMMSNKNLRGKSCNSIVDCISWLEVFCAELTSRIQDLEQEYNKIVIPRTVSISLKTKSYEVYRKSGPVAYKGINFQSHELLKVGIKFVTDLDIKGKNKSYYPLTKLSMTITNFDIIDLQKTVVDMFGNQVHTFKSSAGKEDEEKTTSSKADEKTPKLECCKYQVTFTDQKALQEHADYHLALKLSEGLNGAEESSKNLSFGEKRLLFSRKRPNSQHTATPQKKQVTSSKNILSAATRKK
- UV sensitivity and UV-induced mutagenesis (in words) [1]: enhanced UV sensitivity and UV-induced mutagenesis
- UV sensitivity / complementation (in words) [2]: abrogated its TLS function and displayed equal UV sensitivity with rad30Δ strain
